The chains are these.
T1: HY5 (His-HY5) (Solanum lycopersicum (tomato), UniProt Q9SM50 1-158)
T1 sequence: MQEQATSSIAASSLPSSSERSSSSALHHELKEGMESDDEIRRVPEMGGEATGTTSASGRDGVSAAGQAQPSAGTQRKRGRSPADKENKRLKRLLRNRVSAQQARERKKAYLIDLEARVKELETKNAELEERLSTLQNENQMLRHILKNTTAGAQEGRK

B1: LIN5 ACE probe (dsDNA)
DNA 1: GTAAATTATTACGTCAGGCTTTAT
DNA 2: ATAAAGCCTGACGTAATAATTTAC
B2: PSY1 Z-box probe (dsDNA)
DNA 1: GAAATCTACGTGTCTTAA
DNA 2: TTAAGACACGTAGATTTC
B3: LIN6 A-box probe (dsDNA)
DNA 1: CGCAATTAAATACGTAAGGGCTTTGA
DNA 2: TCAAAGCCCTTACGTATTTAATTGCG
B4: SS1 ACE probe (dsDNA)
DNA 1: CACCCTTTAGACGTATTACAGTAG
DNA 2: CTACTGTAATACGTCTAAAGGGTG
B5: SS7 A-box probe (dsDNA)
DNA 1: GCCCGGTGTCTACGTAAGATTGACAG
DNA 2: CTGTCAATCTTACGTAGACACCGGGC
B6: VI ACE probe (dsDNA)
DNA 1: AAGAAAAAAAATGACGTTTTTCCCCTTATT
DNA 2: AATAAGGGGAAAAACGTCATTTTTTTTCTT
B7: PDS C/G-box probe (dsDNA)
DNA 1: TGGTGGGACGTGTCAAATT
DNA 2: AATTTGACACGTCCCACCA

The results in this text go back to article PMC12199398, “Manipulating the Light Systemic Signal HY5 Greatly Improve Fruit Quality in Tomato”.

The data set addresses T1, HY5 (His-HY5). The data set can be described thus: EMSA; LightShift Chemiluminescent EMSA Kit (Thermo 20148); buffer, salt, pH and temperature not stated. As to conditions: protein: recombinant; tags: His (pET-32a); chain copies: 2; blunt.
As to B1, the binding result was “binds”. To B2 belongs “binds”. To B3 belongs “binds”. To B4 belongs “binds”; to B5, “binds”.

Consider B6, for which the binding result is “binds”. To B7 belongs “binds”.
